Read-outs that look alike come from different tables or passages of the source.
Tests used:
human CX3CR1 (human) [1] = biological target: human CX3CR1 (human) (UniProt P49238)
human CX3CR1 (human) [2] = biological target: human CX3CR1 (human) (UniProt P49238); experiment: flow cytometry on cells
human CX3CR1 (human) [3] = biological target: human CX3CR1 (human) (UniProt P49238); experiment: flow cytometry on cells; remark: listed apart in the source

Sequence of human CX3CR1 (human) (P49238 whole entry): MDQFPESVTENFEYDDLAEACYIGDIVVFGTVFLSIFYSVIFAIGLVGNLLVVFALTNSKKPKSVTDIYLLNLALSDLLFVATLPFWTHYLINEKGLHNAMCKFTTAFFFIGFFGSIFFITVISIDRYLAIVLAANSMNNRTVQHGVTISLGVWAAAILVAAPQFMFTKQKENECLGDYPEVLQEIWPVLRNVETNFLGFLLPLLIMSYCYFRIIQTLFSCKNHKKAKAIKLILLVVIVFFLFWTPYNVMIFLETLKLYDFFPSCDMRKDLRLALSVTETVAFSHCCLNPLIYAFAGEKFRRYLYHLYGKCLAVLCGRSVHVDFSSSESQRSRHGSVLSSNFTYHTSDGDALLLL

Substance | Chemotaxis IC50 (blocks m3 with m1) (human CX3CR1 (human) [1]) [nM] | Ligand Internalization IC50 (blocks m3 with m1) (human CX3CR1 (human) [1]) [nM] | IC50 (human CX3CR1 (human) [2]) [nM] | IC50 (human CX3CR1 (human) [3]) [nM]
BI 655088 (VHH) | 2.7 | 0.33 | 0.4 | 1.6
BI 655089 (Fc fusion) | 3 | 0.37 | 0.7 | –

Source: paper PMC6973309
